Experimental data reported in patent US20180155451A1 (published 2018).

T1: FcγRIIa H (human, UniProt P12318 34-217)
T1 construct: extracellular domain; Soluble His-tagged extracellular domain expressed in FreeStyle293 cells; also called FcγRIIa type H; FcgRIIa H; not shown: His tag attached to the C terminus
T1 sequence (looked up): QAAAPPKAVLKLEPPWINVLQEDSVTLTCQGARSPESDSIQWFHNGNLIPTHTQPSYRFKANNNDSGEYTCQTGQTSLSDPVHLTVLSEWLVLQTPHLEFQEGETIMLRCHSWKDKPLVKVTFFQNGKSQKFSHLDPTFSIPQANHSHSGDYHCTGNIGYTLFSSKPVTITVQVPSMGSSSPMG

T2: FcγRIIb (human, UniProt P31994 43-217)
T2 construct: extracellular domain; Soluble His-tagged extracellular domain expressed in FreeStyle293 cells; also called FcgRIIb; 2b; not shown: His tag attached to the C terminus
T2 sequence (looked up): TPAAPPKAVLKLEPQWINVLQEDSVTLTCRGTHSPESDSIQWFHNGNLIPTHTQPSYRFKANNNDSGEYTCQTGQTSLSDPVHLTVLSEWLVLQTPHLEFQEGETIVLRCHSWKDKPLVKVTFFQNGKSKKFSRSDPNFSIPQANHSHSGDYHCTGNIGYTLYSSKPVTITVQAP

T3: FcγRIIb (human, UniProt P31994 43-217)
T3 construct: extracellular domain; also called FcgRIIb; 2b; not shown: His tag at the C terminus
T3 sequence (looked up): T2 sequence (looked up)

B1: GpH7-A5/GpH7-B3 variant K326_06M/GpL16-k0 (antibody, human IgG1, kappa)
heavy 1: not shown
heavy 2: not shown
light: DIVMTQSPLSLPVTPGEPASISCQASESLVHSNRNTYLHWYLQKPGQSPQLLIYKVSNRFSGVPDRFSGSGSGTDFTLKISRVEAEDVGVYYCSQNTHVPPTFGQGTKVEIERTVAAPSVFIFPPSDEQLKSGTASVVCLLNNFYPREAKVQWKVDNALQSGNSQESVTEQDSKDSTYSLSSTLTLSKADYEKHKVYACEVTHQGLSSPVTKSFNRGEC
notes: Heterodimerized anti-glypican-3 IgG1; mutation in the GpH7-B3 H chain only; also called He Ab
B2: GpH7-A5/GpH7-B3 variant K326_20W/GpL16-k0 (antibody, human IgG1, kappa)
heavy 1: not shown
heavy 2: not shown
light: B1 light
notes: as for B1
B3: GpH7-A5/GpH7-B3 variant K326_15Y/GpL16-k0 (antibody, human IgG1, kappa)
heavy 1: not shown
heavy 2: not shown
light: B1 light
notes: as for B1
B4: GpH7-A5/GpH7-B3 variant N325_03V/GpL16-k0 (antibody, human IgG1, kappa)
heavy 1: not shown
heavy 2: not shown
light: B1 light
notes: as for B1
B5: GpH7-A5/GpH7-B3 variant S337_18N/GpL16-k0 (antibody, human IgG1, kappa)
heavy 1: not shown
heavy 2: not shown
light: B1 light
notes: as for B1
B6: GpH7-A5/GpH7-B3 variant S337_15Y/GpL16-k0 (antibody, human IgG1, kappa)
heavy 1: not shown
heavy 2: not shown
light: B1 light
notes: as for B1
B7: GpH7-A5/GpH7-B3 variant N325_04F/GpL16-k0 (antibody, human IgG1, kappa)
heavy 1: not shown
heavy 2: not shown
light: B1 light
notes: as for B1
B8: GpH7-A5/GpH7-B3 variant K326_19Q/GpL16-k0 (antibody, human IgG1, kappa)
heavy 1: not shown
heavy 2: not shown
light: B1 light
notes: as for B1
B9: GpH7-A5/GpH7-B3 variant K326_07I/GpL16-k0 (antibody, human IgG1, kappa)
heavy 1: not shown
heavy 2: not shown
light: B1 light
notes: as for B1
B10: GpH7-A5/GpH7-B3 variant L328_20W/GpL16-k0 (antibody, human IgG1, kappa)
heavy 1: not shown
heavy 2: not shown
light: B1 light
notes: heterodimerized IgG1; alteration in the GpH7-B3 H chain only; also called He Ab
B11: GpH7-A5/GpH7-B3 variant N325_04F/GpL16-k0 (antibody, human IgG1, kappa)
heavy 1: not shown
heavy 2: not shown
light: B1 light
notes: as for B10
B12: GpH7-A5/GpH7-B3 variant N325_06M/GpL16-k0 (antibody, human IgG1, kappa)
heavy 1: not shown
heavy 2: not shown
light: B1 light
notes: as for B10
B13: GpH7-A5/GpH7-B3 variant L328_15Y/GpL16-k0 (antibody, human IgG1, kappa)
heavy 1: not shown
heavy 2: not shown
light: B1 light
notes: as for B10
B14: GpH7-A5/GpH7-B3 variant P331_16H/GpL16-k0 (antibody, human IgG1, kappa)
heavy 1: not shown
heavy 2: not shown
light: B1 light
notes: as for B10
B15: GpH7-A5/GpH7-B3 variant N325_08L/GpL16-k0 (antibody, human IgG1, kappa)
heavy 1: not shown
heavy 2: not shown
light: B1 light
notes: as for B10
B16: GpH7-A5/GpH7-B3 variant N325_07I/GpL16-k0 (antibody, human IgG1, kappa)
heavy 1: not shown
heavy 2: not shown
light: B1 light
notes: as for B10

biological target: T1, FcγRIIa H; experiment: SPR (Biacore), captured antibody, FcγR analyte; relative to GpH7-A5/GpH7-B3/GpL16-k0 = 100
Experimental: (§1) The heterodimerized antibodies He Abs in which one of the H chains was introduced with an alteration were assayed for their binding activities to each activating FcγR and inhibitory FcγR according to the method described in Example 4. […] The activating FcγRs in FIGS. 26, 27, 28, and 29 are FcγRIa, FcγRIIa (R), FcγRIIa (H), and FcγRIIIa, respectively.
(§2) Analysis of interaction between objective antibody and the FcγR was carried out using Biacore T100 (GE Healthcare). HBS-EP+ (GE Healthcare) was used as the running buffer, and the measurement temperature was set to 25° C. Chips produced by immobilizing the antigen peptide by the amine coupling method to a Series S Sencor Chip CM5 (GE Healthcare), or alternatively, chips produced by allowing preliminarily biotinylated antigen peptides to interact with and immobilize onto a Series S Sensor Chip SA (certified) (GE Healthcare) were used. Antibodies of interest were captured onto an antigen peptide-immobilized chip, and allowed to interact to each FcγR diluted with running buffer. To regenerate and repeatedly use the chip, the antibodies captured on the chip were washed off by reacting 10 mM glycine-HCl, pH 1.5.

He/Con_2aH | Binder
103 relative (control = 100) | B1
83.3 relative (control = 100) | B2
98.3 relative (control = 100) | B3
45.2 relative (control = 100) | B4
99.8 relative (control = 100) | B5
99.4 relative (control = 100) | B6
33.4 relative (control = 100) | B7
101 relative (control = 100) | B8
100 relative (control = 100) | B9

biological target: T2, FcγRIIb; experiment: as above
Experimental: as §1, §2

He/Con_2b | Binder
165 relative (control = 100) | B1
148 relative (control = 100) | B2
159 relative (control = 100) | B3
111 relative (control = 100) | B4
103 relative (control = 100) | B5
100 relative (control = 100) | B6
143 relative (control = 100) | B7
139 relative (control = 100) | B8
199 relative (control = 100) | B9

biological target: T4, FcγRIa (human, UniProt P12314 16-292); experiment: SPR (Biacore); He/Con_1a (FcγRIa) divided by He/Con_2b (FcγRIIb)
T4 construct: extracellular domain; also called FcgRI; 1a; not shown: His tag at the C terminus
T4 sequence (P12314 16-292): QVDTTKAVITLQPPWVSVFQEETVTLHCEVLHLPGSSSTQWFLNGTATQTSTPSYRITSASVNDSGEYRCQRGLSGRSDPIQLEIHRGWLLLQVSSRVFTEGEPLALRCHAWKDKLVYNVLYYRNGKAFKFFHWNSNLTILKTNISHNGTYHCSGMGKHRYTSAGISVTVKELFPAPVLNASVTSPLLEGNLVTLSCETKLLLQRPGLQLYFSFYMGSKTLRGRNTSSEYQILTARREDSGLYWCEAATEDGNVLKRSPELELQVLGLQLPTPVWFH

Ia/IIb He_1a/2b | Binder
0.44 ratio | B10
0.65 ratio | B11
0.45 ratio | B12
0.53 ratio | B13
0.8 ratio | B14
0.5 ratio | B15
0.55 ratio | B16

biological target: T4, FcγRIa; experiment: SPR (Biacore), antibody captured, FcγR as analyte; binding as % of GpH7-A5/GpH7-B3/GpL16-k0

He/Con_1a | Binder
103 % of control | B10
93.2 % of control | B11
97.6 % of control | B12
102 % of control | B13
92.4 % of control | B14
97.5 % of control | B15
94.8 % of control | B16

biological target: T3, FcγRIIb; experiment: as above

He/Con_2b | Binder
235 % of control | B10
143 % of control | B11
217 % of control | B12
193 % of control | B13
116 % of control | B14
197 % of control | B15
171 % of control | B16

biological target: T1, FcγRIIa H; experiment: SPR (Biacore); He/Con_2aH divided by He/Con_2b (FcγRIIb) of the same antibody
Experimental: as §1, §2

He_2aH/2b | Binder
0.63 ratio | B1
0.56 ratio | B2
0.62 ratio | B3
0.41 ratio | B4
0.23 ratio | B7
0.73 ratio | B8
0.5 ratio | B9
